Patent publication US20200115434A1 (EUREKA THERAPEUTICS, published 2020)

Tests used:
[1] = target: T1, PE-labeled AFP158/HLA-A*02:01 tetramer (human, biotinylated via the BSP peptide linked to the C-terminal end of the extracellular domain); test: flow cytometry, PE-labelled tetramer on transduced Jurkat cells
T1 construct: also called AFP158 tetramer; AFP158/HLA-A*02:01 tetramers; not shown: BSP peptide (BirA biotinylation site) at the C-terminus

[2] = target: T1, PE-labeled AFP158/HLA-A*02:01 tetramer; test: flow cytometry, PE-labelled tetramer on transduced J.RT3-T3.5 cells

Row | Binder | binding result [1] | binding result [2]
1 | anti-AFP158/HLA-A*02:01-abTCR-6 (other, the junction between chain and tag is not described) chain 1: EVQLVQSGAEVKKPGESLTISCKASGYSFPNYWITWVRQMSGGGLEWMGRIDPGDSYTTYNPSFQGHVTISIDKSTNTAYLHWNSLKASDTAMYYCARYYVSLVDIWGQGTLVTVSSASTKGPSVFPLAPSSKSTSGGTAALGCLVKDYFPEPVTVSWNSGALTSGVHTFPAVLQSSGLYSLSSVVTVPSSSLGTQTYICNVNHKPSNTKVDKRVEPKSCDHVKPKETENTKQPSKSCHKPKAIVHTEKVNMMSLTVLGLRMLFAKTVAVNFLLTAKLFFLYPYDVPDYA chain 2: QSVLTQPASVSGSPGQSITISCTGTSSDVGGYNYVSWYQQHPGKAPKLMIYDVNNRPSEVSNRFSGSKSGNTASLTISGLQAEDEADYYCSSYTTGSRAVFGGGTKLTVLGQPKANPTVTLFPPSSEELQANKATLVCLISDFYPGAVTVAWKADGSPVKAGVETTKPSKQSNNKYAASSYLSLTPEQWKSHRSYSCQVTHEGSTVEKTVAPTECSMDPKDNCSKDANDTLLLQLTNTSAYYMYLLLLLKSVVYFAIITCCLLRRTAFCCNGEKSDYKDHDGDYKDHDIDYKDDDDK | binds | 
2 | anti-AFP158/HLA-A*02:01-abTCR-3 (other, the junction between chain and tag is not described) chain 1: EVQLVQSGAEVKKPGESLTISCKASGYSFPNYWITWVRQMSGGGLEWMGRIDPGDSYTTYNPSFQGHVTISIDKSTNTAYLHWNSLKASDTAMYYCARYYVSLVDIWGQGTLVTVSSASTKGPSVFPLAPSSKSTSGGTAALGCLVKDYFPEPVTVSWNSGALTSGVHTFPAVLQSSGLYSLSSVVTVPSSSLGTQTYICNVNHKPSNTKVDKRVEPKSCESSCDVKLVEKSFETDTNLNFQNLSVIGFRILLLKVAGFNLLMTLRLWSSDYKDHDGDYKDHDIDYKDDDDK chain 2: QSVLTQPASVSGSPGQSITISCTGTSSDVGGYNYVSWYQQHPGKAPKLMIYDVNNRPSEVSNRFSGSKSGNTASLTISGLQAEDEADYYCSSYTTGSRAVFGGGTKLTVLGQPKANPTVTLFPPSSEELQANKATLVCLISDFYPGAVTVAWKADGSPVKAGVETTKPSKQSNNKYAASSYLSLTPEQWKSHRSYSCQVTHEGSTVEKTVAPTECSADCGFTSVSYQQGVLSATILYEILLGKATLYAVLVSALVLMAMVKRKDFYPYDVPDYA |  | binds

Continued, values first:

Row | binding result [1] | binding result [2] | Binder
3 | binds |  | anti-AFP158/HLA-A*02:01-abTCR-5 (other, the junction between chain and tag is not described) chain 1: QSVLTQPASVSGSPGQSITISCTGTSSDVGGYNYVSWYQQHPGKAPKLMIYDVNNRPSEVSNRFSGSKSGNTASLTISGLQAEDEADYYCSSYTTGSRAVFGGGTKLTVLGQPKANPTVTLFPPSSEELQANKATLVCLISDFYPGAVTVAWKADGSPVKAGVETTKPSKQSNNKYAASSYLSLTPEQWKSHRSYSCQVTHEGSTVEKTVAPTECSDHVKPKETENTKQPSKSCHKPKAIVHTEKVNMMSLTVLGLRMLFAKTVAVNFLLTAKLFFLYPYDVPDYA chain 2: EVQLVQSGAEVKKPGESLTISCKASGYSFPNYWITWVRQMSGGGLEWMGRIDPGDSYTTYNPSFQGHVTISIDKSTNTAYLHWNSLKASDTAMYYCARYYVSLVDIWGQGTLVTVSSASTKGPSVFPLAPSSKSTSGGTAALGCLVKDYFPEPVTVSWNSGALTSGVHTFPAVLQSSGLYSLSSVVTVPSSSLGTQTYICNVNHKPSNTKVDKRVEPKSCMDPKDNCSKDANDTLLLQLTNTSAYYMYLLLLLKSVVYFAIITCCLLRRTAFCCNGEKSDYKDHDGDYKDHDIDYKDDDDK
4 | binds |  | anti-AFP158/HLA-A*02:01-abTCR-4 (other, the junction between chain and tag is not described) chain 1: QSVLTQPASVSGSPGQSITISCTGTSSDVGGYNYVSWYQQHPGKAPKLMIYDVNNRPSEVSNRFSGSKSGNTASLTISGLQAEDEADYYCSSYTTGSRAVFGGGTKLTVLGQPKANPTVTLFPPSSEELQANKATLVCLISDFYPGAVTVAWKADGSPVKAGVETTKPSKQSNNKYAASSYLSLTPEQWKSHRSYSCQVTHEGSTVEKTVAPTECSESSCDVKLVEKSFETDTNLNFQNLSVIGFRILLLKVAGFNLLMTLRLWSSDYKDHDGDYKDHDIDYKDDDDK chain 2: EVQLVQSGAEVKKPGESLTISCKASGYSFPNYWITWVRQMSGGGLEWMGRIDPGDSYTTYNPSFQGHVTISIDKSTNTAYLHWNSLKASDTAMYYCARYYVSLVDIWGQGTLVTVSSASTKGPSVFPLAPSSKSTSGGTAALGCLVKDYFPEPVTVSWNSGALTSGVHTFPAVLQSSGLYSLSSVVTVPSSSLGTQTYICNVNHKPSNTKVDKRVEPKSCADCGFTSVSYQQGVLSATILYEILLGKATLYAVLVSALVLMAMVKRKDFYPYDVPDYA
